We go through one substance from PMC8420772.

Broadly, the stoichiometry N is the number of molecules, sites or subunits per partner or assembly.

In the assay the target is SeMet-labeled MtMce4A_(39–140) (Mycobacterium tuberculosis H37Rv). Kind of assay: crystal structure; SeMet-labeled protein, 7.5 mg ml^−1; 100 mM MES, 700 mM ammonium sulfate pH 6.0, 22°C; space group P6_(5), 3.6 Å, SAD phasing.

“SeMet-labeled MtMce4A_(39–140) (domain or fragment)” had a stoichiometry N of 2.
